Test results as given in PMC9481175.

Molecular target: His-tagged pleckstrin homology (PH) domain of AKT (AKT-PHD) (Marsupenaeus japonicus)
Assay: ITC; CaM (70 uM) titrated into 10 uM AKT-PHD in the cell; 25°C; 0.1 M Tris-HCl pH 8.0; 19 injections; Auto-iTC200

Q: How did the Kd turn out when “recombinant GST-tagged calmodulin (CaM) (natural protein)” was run?
A: Its Kd is 726 nM.

Q: What about the dH of the same substance?
A: The dH was -80.1 kcal/mol.
